Source: publication PMC9735655, “Two Distinct Modes of DNA Binding by an MCM Helicase Enable DNA Translocation”
Values belong to the molecule of their own block, whether it stands above or below them.

Assays:
[1] = target: MCM protein of Saccharolobus solfataricus with the C-terminal helix-turn-helix domain removed and a modified linker between the N-terminal domain and the AAA+ ATPase domain (Saccharolobus solfataricus) (UniProt Q9UXG1); experiment: cryo-EM structure; SsoMCM at 1 mg/mL mixed 5:1 by volume with 1 mM oligonucleotide (T12, T16 or T20-CTATAG-T20), 5 mM ADP-BeF3, magnesium; plunge-frozen; two structural classes, also refined from merged particles
[2] = target: T1, SsoMCM (C-terminal HTH removed, modified interdomain linker; pEE078.1) (Saccharolobus solfataricus, UniProt Q9UXG1 1-265+=GGSGGS+275-612, internal_change); experiment: cryo-EM; Mg2+, ADP-BeF3; class 1 (six subunits on DNA); Cryo-EM sample: protein 1 mg/mL mixed 5:1 (v/v) with 1 mM oligonucleotide, 5 mM fresh ADP-BeF3, magnesium present; buffer, salt, pH and temperature not stated in the material; conditions: protein: recombinant, tags: His6-SUMO removed with Ulp1, chain copies: 6
T1 sequence: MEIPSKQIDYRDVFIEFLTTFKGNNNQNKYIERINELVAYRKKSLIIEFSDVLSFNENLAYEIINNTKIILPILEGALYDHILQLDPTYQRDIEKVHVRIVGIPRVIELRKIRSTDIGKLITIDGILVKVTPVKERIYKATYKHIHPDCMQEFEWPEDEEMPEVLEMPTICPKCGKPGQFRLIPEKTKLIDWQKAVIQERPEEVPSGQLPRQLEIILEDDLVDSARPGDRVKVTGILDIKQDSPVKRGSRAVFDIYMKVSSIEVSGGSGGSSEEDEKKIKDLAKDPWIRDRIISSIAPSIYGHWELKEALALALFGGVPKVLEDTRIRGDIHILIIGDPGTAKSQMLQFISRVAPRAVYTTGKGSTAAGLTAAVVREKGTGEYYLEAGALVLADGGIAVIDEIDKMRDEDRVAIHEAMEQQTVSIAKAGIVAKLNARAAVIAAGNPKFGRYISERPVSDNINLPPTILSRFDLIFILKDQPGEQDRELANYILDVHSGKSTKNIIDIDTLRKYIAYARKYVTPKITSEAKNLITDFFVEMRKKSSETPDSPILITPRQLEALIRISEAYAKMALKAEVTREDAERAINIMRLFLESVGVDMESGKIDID

[3] = target: T1, SsoMCM (C-terminal HTH removed, …); experiment: cryo-EM; Mg2+, ADP-BeF3; class 1 (six subunits on DNA, 2.48 A); Cryo-EM sample: protein 1 mg/mL mixed 5:1 (v/v) with 1 mM oligonucleotide, 5 mM fresh ADP-BeF3, magnesium present; buffer, salt, pH and temperature not stated in the material; conditions: protein: recombinant; tags: His6-SUMO removed with Ulp1; chain copies: 6; single strand

stoichiometry N [1]: 6
Molecule: MCM protein of Saccharolobus solfataricus with the C-terminal helix-turn-helix domain removed and a modified linker between the N-terminal domain and the AAA+ ATPase domain (from UniProt Q9UXG1 1-686) (enzyme)

Molecule: TTTTTTTTTTTTTTTTTTTTCTATAGTTTTTTTTTTTTTTTTTTTT (ssDNA) [T20-CTATAG-T20]
binding result ([2]; central 6-nt palindrome, potential X-shape with 20-mer poly-dT arms): binds

Molecule: TTTTTTTTTTTT (ssDNA) [T12 (12-mer poly-dT)]
binding result ([2]; single strand): binds

Molecule: TTTTTTTTTTTTTTTT (ssDNA) [T16 (16-mer poly-dT)]
binding result [3]: binds
